The source of these data is FireProtDB.

The conditions of this series: whole UniProt chain shown.
The mark [1] stands for this setting: Escherichia coli (strain K12), pH 7, Thermal, DSC, Potassium phosphate 50 mM, KCl 0.5 M, reversible: no.
Where [2] appears, read: Comamonas testosteroni, pH 7, 25 °C, Urea, Fluorescence, phosphate 25 mM, reversible: yes.
Setting [3] is: Bos taurus, pH 6, Thermal, DSC, Sodium phosphate 50 mM, NaCl 200 mM, reversible: yes.
The mark [4] stands for this setting: Equus caballus, pH 4, 25 °C, GdnHCl, CD, Citrate 50 mM.
[5] abbreviates: Equus caballus, pH 4, 25 °C, GdnHCl, CD, Formate 50 mM.
Setting [6] is: Equus caballus, pH 4, 25 °C, Urea, CD, Citrate 50 mM.
[7] abbreviates: Equus caballus, pH 4, 25 °C, Urea, CD, Formate 50 mM.
The mark [8] stands for this setting: Bos taurus, pH 7, Thermal, DSC, Potassium phosphate 67 mM, MgCl2 1 mM.
The mark [9] stands for this setting: Bos taurus, pH 6.7, Thermal, DSC, phosphate 10 mM, MgCl2 0.5 mM, reversible: No.

B1: Inorganic pyrophosphatase wild type, P0A7A9 (protein)
chain: MSLLNVPAGKDLPEDIYVVIEIPANADPIKYEIDKESGALFVDRFMSTAMFYPCNYGYINHTLSLDGDPVDVLVPTPYPLQPGSVIRCRPVGVLKMTDEAGEDAKLVAVPHSKLSKEYDHIKDVNDLPELLKAQIAHFFEHYKDLEKGKWVKVEGWENAEAAKAEIVASFERAKNK
Take B1: the Tm worked out at 84 °C (Escherichia coli (strain K12), pH 7, Thermal, CD, HEPES 20 mM, MgCl2 5 mM) and 58 °C (Escherichia coli (strain K12), pH 7, Thermal, CD, HEPES 20 mM).

B2: DNA-Binding protein G5P wild type, P69542 (protein)
chain: MIKVEIKPSQAQFTTRSGVSRQGKPYSLNEQLCYVDLGNEYPVLVKITLDEGQPAYAPGLYTVHLSSFKVGQFGSLMIDRLRLVPAK
On to B2, for which the unfolding free energy (Enterobacteria phage fd, pH 7, 25 °C, GdnHCl, CD, MOPS 0.05 M, NaCl 0.1 M, reversible: yes) is 16.3 kcal/mol.

B3: DNA-binding transcriptional dual regulator CRP wild type, P0ACJ8 (protein)
chain: MVLGKPQTDPTLEWFLSHCHIHKYPSKSTLIHQGEKAETLYYIVKGSVAVLIKDEEGKEMILSYLNQGDFIGELGLFEEGQERSAWVRAKTACEVAEISYKKFRQLIQVNPDILMRLSAQMARRLQVTSEKVGNLAFLDVTGRIAQTLLNLAKQPDAMTHPDGMQIKITRQEIGQIVGCSRETVGRILKMLEDQNLISAHGKTIVVYGTR
As to B3, under setting [1], the Tm came to 66.4 °C, the “heat capacity change of unfolding” value stood at 0.42 kcal/mol/K, the “unfolding enthalpy (calorimetric)” value came to 131 kcal/mol and the “unfolding enthalpy (van 't Hoff)” value stood at 231 kcal/mol. Besides, the unfolding free energy (Escherichia coli (strain K12), pH 7.9, 20 °C, GdnHCl, CD, Tris-HCl 50 mM, KCl 0.1 M, reversible: yes) was determined as 7.2 kcal/mol. Besides, the unfolding free energy (Escherichia coli (strain K12), pH 7.9, 20 °C, Thermal, CD, Tris-HCl 50 mM, KCl 100 mM, reversible: yes) stood at 7.32 kcal/mol.

B4: Shikimate kinase 2 wild type, P10880 (protein)
chain: MTEPIFMVGARGCGKTTVGRELARALGYEFVDTDIFMQHTSGMTVADVVAAEGWPGFRRRESEALQAVATPNRVVATGGGMVLLEQNRQFMRAHGTVVYLFAPAEELALRLQASPQAHQRPTLTGRPIAEEMEAVLREREALYQDVAHYVVDATQPPAAIVCELMQTMRLPAA
In the case of B4, the “denaturant midpoint (higher = more stable)” value (Dickeya chrysanthemi, pH 7.6, 25 °C, Urea, Fluorescence, Tris-HCl 35 mM, KCl 5 mM) was found to be 2.1 M.

B5: Steroid Delta-isomerase wild type, P00947 (protein)
chain: MNTPEHMTAVVQRYVAALNAGDLDGIVALFADDATVEDPVGSEPRSGTAAIREFYANSLKLPLAVELTQEVRAVANEAAFAFTVSFEYQGRKTVVAPIDHFRFNGAGKVVSMRALFGEKNIHAGA
Consider B5, for which, under setting [2], the denaturant m value was determined as 4 kcal/mol/M and the unfolding free energy stood at 22 kcal/mol.

B6: Ribonuclease pancreatic wild type, P61823 (protein)
chain: MALKSLVLLSLLVLVLLLVRVQPSLGKETAAAKFERQHMDSSTSAASSSNYCNQMMKSRNLTKDRCKPVNTFVHESLADVQAVCSQKNVACKNGQTNCYQSYSTMSITDCRETGSSKYPNCAYKTTQANKHIIVACEGNPYVPVHFDASV
Consider B6, for which, under setting [3], the Tm amounted to 47.7 °C, the “heat capacity change of unfolding” value was found to be 2 kcal/mol/K and the “unfolding enthalpy (calorimetric)” value was determined as 107 kcal/mol.

B7: Protein GrpE wild type, P09372 (protein)
chain: MSSKEQKTPEGQAPEEIIMDQHEEIEAVEPEASAEQVDPRDEKVANLEAQLAEAQTRERDGILRVKAEMENLRRRTELDIEKAHKFALEKFINELLPVIDSLDRALEVADKANPDMSAMVEGIELTLKSMLDVVRKFGVEVIAETNVPLDPNVHQAIAMVESDDVAPGNVLGIMQKGYTLNGRTIRAAMVTVAKAKA
On to B7, for which the Tm runs as follows: (Escherichia coli (strain K12), pH 7, Thermal, CD, potassium phosphate 25 mM, reversible: yes) 48 °C; (Escherichia coli (strain K12), pH 7, Thermal, DSC, potassium phosphate 25 mM, reversible: yes) 48 °C.

B8: Beta-lactoglobulin-1 wild type, P02758 (protein)
chain: MKCLLLALGLALMCGIQATNIPQTMQDLDLQEVAGKWHSVAMAASDISLLDSESAPLRVYIEKLRPTPEDNLEIILREGENKGCAEKKIFAEKTESPAEFKINYLDEDTVFALDTDYKNYLFLCMKNAATPGQSLVCQYLARTQMVDEEIMEKFRRALQPLPGRVQIVPDLTRMAERCRI
On to B8, for which the denaturant m value was found to be 4.74 kcal/mol/M under setting [4], 1.54 kcal/mol/M under setting [5], 2.9 kcal/mol/M under setting [6] and 0.74 kcal/mol/M under setting [7]. Besides, the unfolding free energy under setting [4] worked out at 10.1 kcal/mol, the unfolding free energy under setting [5] is 3.92 kcal/mol, the unfolding free energy under setting [6] worked out at 9.83 kcal/mol and the unfolding free energy under setting [7] was 2.9 kcal/mol.

B9: NADP-dependent isopropanol dehydrogenase wild type, P25984 (protein)
chain: MKGFAMLGINKLGWIEKERPVAGSYDAIVRPLAVSPCTSDIHTVFEGALGDRKNMILGHEAVGEVVEVGSEVKDFKPGDRVIVPCTTPDWRSLEVQAGFQQHSNGMLAGWKFSNFKDGVFGEYFHVNDADMNLAILPKDMPLENAVMITDMMTTGFHGAELADIQMGSSVVVIGIGAVGLMGIAGAKLRGAGRIIGVGSRPICVEAAKFYGATDILNYKNGHIVDQVMKLTNGKGVDRVIMAGGGSETLSQAVSMVKPGGIISNINYHGSGDALLIPRVEWGCGMAHKTIKGGLCPGGRLRAEMLRDMVVYNRVDLSKLVTHVYHGFDHIEEALLLMKDKPKDLIKAVVIL
For B9, the Tm (Clostridium beijerinckii, pH 6.8, Thermal, CD, Na/K phosphate 50 mM) was determined as 65.1 °C.

B10: Rhodopsin wild type, P02699 (protein)
chain: MNGTEGPNFYVPFSNKTGVVRSPFEAPQYYLAEPWQFSMLAAYMFLLIMLGFPINFLTLYVTVQHKKLRTPLNYILLNLAVADLFMVFGGFTTTLYTSLHGYFVFGPTGCNLEGFFATLGGEIALWSLVVLAIERYVVVCKPMSNFRFGENHAIMGVAFTWVMALACAAPPLVGWSRYIPEGMQCSCGIDYYTPHEETNNESFVIYMFVVHFIIPLIVIFFCYGQLVFTVKEAAAQQQESATTQKAEKEVTRMVIIMVIAFLICWLPYAGVAFYIFTHQGSDFGPIFMTIPAFFAKTSAVYNPVIYIMMNKQFRNCMVTTLCCGKNPLGDDEASTTVSKTETSQVAPA
Consider B10, for which, under setting [8], the Tm was 71.7 °C and the “unfolding enthalpy (calorimetric)” value is 172 kcal/mol.

B11: L-asparaginase 2 wild type, P00805 (protein)
chain: MEFFKKTALAALVMGFSGAALALPNITILATGGTIAGGGDSATKSNYTVGKVGVENLVNAVPQLKDIANVKGEQVVNIGSQDMNDNVWLTLAKKINTDCDKTDGFVITHGTDTMEETAYFLDLTVKCDKPVVMVGAMRPSTSMSADGPFNLYNAVVTAADKASANRGVLVVMNDTVLDGRDVTKTNTTDVATFKSVNYGPLGYIHNGKIDYQRTPARKHTSDTPFDVSKLNELPKVGIVYNYANASDLPAKALVDAGYDGIVSAGVGNGNLYKSVFDTLATAAKTGTAVVRSSRVPTGATTQDAEVDDAKYGFVASGTLNPQKARVLLQLALTQTKDPQQIQQIFNQY
With B11, where the note is “Escherichia coli (strain K12), pH 7.4, 25 °C, Urea, Fluorescence, Tris-HCl 50 mM”, the unfolding free energy stood at 11.5 kcal/mol.

B12: Chemotaxis protein CheY wild type, P0AE67 (protein)
chain: MADKELKFLVVDDFSTMRRIVRNLLKELGFNNVEEAEDGVDALNKLQAGGYGFVISDWNMPNMDGLELLKTIRADGAMSALPVLMVTAEAKKENIIAAAQAGASGYVVKPFTAATLEEKLNKIFEKLGM
B12: the unfolding free energy (Escherichia coli (strain K12), pH 7, 25 °C, Urea, Fluorescence, Cacodylate 100 mM) was 5.6 kcal/mol.

B13: Tubulin--tyrosine ligase wild type, P38584 (protein)
chain: MYTFVVRDENSSVYAEVSRLLLATGHWKRLRRDNPRFNLMLGERNRLPFGRLGHEPGLMQLVNYYRGADKLCRKASLVKLIKTSPELAESCTWFPESYVIYPTNLKTPVAPAQDGIHPPLHSSRTDEREFFLASYNRKKEEGEGNVWIAKSSAGAKGEGILISSDATELLDFIDNQGQVHVIQKYLERPLLLEPGHRKFDIRSWVLVDHQFNIYLYREGVLRTASEPYHMDNFQDKTCHLTNHCIQKEYSKNYGKYEEGNEMFFEAFNRYLTSALNITLESSILLQIKHIIRSCLMSVEPAISTKHLPYQSFQLFGFDFMVDEELKVWLIEVNGAPACAQKLYAELCQGIVDIAIASVFPPPDAEQQPPQPATFIKL
As for B13, under setting [9], the Tm was found to be 54.8 °C and the “unfolding enthalpy (calorimetric)” value was 173 kcal/mol.

The Tm is the temperature at which the thermal transition is half complete.
